# Laboratory results reported in the supplement of paper PMC9233669.
# Variants at the floor of the assay were thinned out.
# Legend:
# [1] = test system: biotinyl-Phe-oxazolone; assay: self-aminoacylation, catalytic enhancement (BFO) (fold over background); higher = more active; k-Seq, kA / k0A0; sequences stand for … in GGGAAUGGAUCCACAUCUACGAAUUC…UUCACUGCAGACUUGACGAAGCUG
# Outline: (§1)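 Each biotinyl-aminoacyl-oxazolone, at 2–1250 μM, was incubated with mutagenized RNA pools (0.43 μM) carrying a 21-nt variable region. The 50 μL reactions contained HEPES/NaCl/KCl/MgCl2/CaCl2 buffer with 5% acetonitrile at pH 6.9–7.0 and ran for 90 minutes at room temperature. After streptavidin capture, RNA was measured by qPCR in triplicate and by Illumina sequencing, and catalytic enhancement was calculated as median kA over the uncatalyzed rate from a pseudo-first-order fit of per-sequence fraction reacted.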
# [2] = test system: biotinyl-Leu-oxazolone; assay: self-aminoacylation, catalytic enhancement (BLO) (fold over background); higher = more active; k-Seq, kA / k0A0; sequences stand for … in GGGAAUGGAUCCACAUCUACGAAUUC…UUCACUGCAGACUUGACGAAGCUG
# Outline: as §1
# [3] = test system: biotinyl-Met-oxazolone; assay: self-aminoacylation, catalytic enhancement (BMO) (fold over background); higher = more active; k-Seq, kA / k0A0; sequences stand for … in GGGAAUGGAUCCACAUCUACGAAUUC…UUCACUGCAGACUUGACGAAGCUG
# Outline: as §1
# [4] = test system: biotinyl-Val-oxazolone; assay: self-aminoacylation, catalytic enhancement (BVO) (fold over background); higher = more active; k-Seq, kA / k0A0; sequences stand for … in GGGAAUGGAUCCACAUCUACGAAUUC…UUCACUGCAGACUUGACGAAGCUG
# Outline: as §1
# [5] = test system: biotinyl-Trp-oxazolone; assay: self-aminoacylation, catalytic enhancement (BWO) (fold over background); higher = more active; k-Seq, kA / k0A0; sequences stand for … in GGGAAUGGAUCCACAUCUACGAAUUC…UUCACUGCAGACUUGACGAAGCUG
# Outline: as §1
# [6] = test system: biotinyl-Ile-oxazolone; assay: self-aminoacylation, catalytic enhancement (BIO) (fold over background); higher = more active; k-Seq, kA / k0A0; sequences stand for … in GGGAAUGGAUCCACAUCUACGAAUUC…UUCACUGCAGACUUGACGAAGCUG
# Outline: as §1
Sequence,self-aminoacylation [1],self-aminoacylation [2],self-aminoacylation [3],self-aminoacylation [4],self-aminoacylation [5],self-aminoacylation [6]
AUUAACCUGGUCAUCGAGGGA [Fam2.1 aminoacylation ribozyme variant],0.771,1.28,1.76,1.3,1.99,1.53
AUUAACCUGGUCAUCGAGUGG [Fam2.1 aminoacylation ribozyme variant],2.19,2.11,1.63,1.2,2.03,1.25
AUUAACCUGGUCAUCGAGUGU [Fam2.1 aminoacylation ribozyme variant],5.48,4.39,3.72,2.61,4.67,2.33
AUUAACCUGGUCAUCGAGUUA [Fam2.1 aminoacylation ribozyme variant],0.827,1.06,1.34,1.02,0.836,1
AUUAACCUGGUCAUCGUGUGA [Fam2.1 aminoacylation ribozyme variant],13.1,3.13,3.13,1.82,3.69,1.69
AUUAAGCUGGUCAUCGAGUGA [Fam2.1 aminoacylation ribozyme variant],4.33,3.05,3.07,2.36,3.85,2.77
AUUACAAUGGUCAUCGAGUGA [Fam2.1 aminoacylation ribozyme variant],16.6,6.42,6.47,3.54,7.87,3.7
AUUACACCGGUCAUCGAGUGA [Fam2.1 aminoacylation ribozyme variant],29.4,6.36,5.76,2.96,5.95,2.95
AUUACACUGGACAUCGAGUGA [Fam2.1 aminoacylation ribozyme variant],14.9,6.11,5.83,2.87,6.45,3.23
AUUACACUGGUCAGCGAGUGA [Fam2.1 aminoacylation ribozyme variant],16.9,5.37,4.36,2.58,5.83,3.4
AUUACACUGGUCAUCGAGCGA [Fam2.1 aminoacylation ribozyme variant],0.889,2.29,2.15,1.96,1.8,1.64
AUUACACUGGUCAUCGAGUCA [Fam2.1 aminoacylation ribozyme variant],0.583,0.857,0.865,0.83,0.497,0.877
AUUACACUGGUCAUUGAGUGA [Fam2.1 aminoacylation ribozyme variant],35,6.76,6.48,3.28,7.64,3.39
AUUACAGUGGUCAUCGAGUGA [Fam2.1 aminoacylation ribozyme variant],1.09,1.44,1.87,1.76,1.78,1.75
AUUACCAGGGUCAUCGAGUGA [Fam2.1 aminoacylation ribozyme variant],17.2,5.09,4.43,3.1,5.56,3.1
AUUACCAUAGUCAUCGAGUGA [Fam2.1 aminoacylation ribozyme variant],43.4,7.53,7.07,3.89,9.11,4.32
AUUACCAUGGUCAGCGAGUGA [Fam2.1 aminoacylation ribozyme variant],30.7,6.19,5.49,3.19,6.31,3.11
AUUACCAUGGUCAUCGAGAGA [Fam2.1 aminoacylation ribozyme variant],0.497,0.937,0.859,0.864,1.38,0.797
AUUACCAUGGUCAUCGAGUAA [Fam2.1 aminoacylation ribozyme variant],1.09,1.33,1.7,1.42,1.28,1.41
AUUACCAUGGUCAUCGAGUGC [Fam2.1 aminoacylation ribozyme variant],0.948,1.47,1.38,1.17,1.35,1.12
AUUACCAUGGUCAUCGAGUGG [Fam2.1 aminoacylation ribozyme variant],2.67,3.14,2.45,1.63,2.18,1.72
AUUACCAUGGUCAUCGCGUGA [Fam2.1 aminoacylation ribozyme variant],189,25.2,24.6,12.1,26.7,10.3
AUUACCAUGGUCCUCGAGUGA [Fam2.1 aminoacylation ribozyme variant],29.3,5.83,4.88,2.68,4.82,2.48
AUUACCCAGGUCAUCAAGUGA [Fam2.1 aminoacylation ribozyme variant],3.35,1.97,1.97,1.59,2.63,1.47
AUUACCCAGGUCAUCGACUGA [Fam2.1 aminoacylation ribozyme variant],0.774,0.746,0.743,1.03,0.9,0.847
AUUACCCAGGUCAUCGAGUUA [Fam2.1 aminoacylation ribozyme variant],1.39,0.915,0.882,1,1.32,1.01

Sequence,self-aminoacylation [1],self-aminoacylation [2],self-aminoacylation [3],self-aminoacylation [4],self-aminoacylation [5],self-aminoacylation [6]
AUUACCCAGGUCAUGGAGUGA [Fam2.1 aminoacylation ribozyme variant],8.43,4.67,3.83,3.01,4.7,2.85
AUUACCCAGGUUAUCGAGUGA [Fam2.1 aminoacylation ribozyme variant],50.4,9.68,9.6,4.25,11.6,3.94
AUUACCCCAGUCAUCGAGUGA [Fam2.1 aminoacylation ribozyme variant],24.9,4.88,6.05,3.25,6.76,2.92
AUUACCCCGGUCAACGAGUGA [Fam2.1 aminoacylation ribozyme variant],28.2,4.74,5.86,3.47,6.44,3.08
AUUACCCCGGUCAUCGGGUGA [Fam2.1 aminoacylation ribozyme variant],103,15.9,14.4,7.32,12.7,5.57
AUUACCCCGGUCAUUGAGUGA [Fam2.1 aminoacylation ribozyme variant],43.9,6.53,7.29,3.79,8.47,3.22
AUUACCCGAGUCAUCGAGUGA [Fam2.1 aminoacylation ribozyme variant],62.6,8.84,8.55,4.68,10.2,4.27
AUUACCCGGAUCAUCGAGUGA [Fam2.1 aminoacylation ribozyme variant],38.4,7.92,7.04,4.04,7.26,3.43
AUUACCCGGGUCAGCGAGUGA [Fam2.1 aminoacylation ribozyme variant],55.5,7.97,8.03,5.24,10.2,5.75
AUUACCCGGGUCAUCGAGUGG [Fam2.1 aminoacylation ribozyme variant],10.1,1.92,1.63,1.81,2.45,1.25
AUUACCCGGGUCAUCUAGUGA [Fam2.1 aminoacylation ribozyme variant],70.8,11,9.33,5.08,11.2,4.46
AUUACCCGGGUCAUGGAGUGA [Fam2.1 aminoacylation ribozyme variant],25.8,4.59,4.26,2.87,4.98,2.82
AUUACCCGGGUCCUCGAGUGA [Fam2.1 aminoacylation ribozyme variant],47.4,7.78,5.42,3.84,7.11,3.5
AUUACCCUAGUCAUCGAAUGA [Fam2.1 aminoacylation ribozyme variant],0.87,0.924,1.02,1.06,0.469,0.919
AUUACCCUAGUCAUCGAGUUA [Fam2.1 aminoacylation ribozyme variant],1.05,0.9,0.978,1.17,0.53,0.922
AUUACCCUAGUCCUCGAGUGA [Fam2.1 aminoacylation ribozyme variant],15.9,3.93,4.15,2.34,4.08,2.2
AUUACCCUAGUCUUCGAGUGA [Fam2.1 aminoacylation ribozyme variant],24.6,5,5.54,3.22,7.87,3.09
AUUACCCUAUUCAUCGAGUGA [Fam2.1 aminoacylation ribozyme variant],17.3,4.15,4.25,2.66,6.86,2.37
AUUACCCUCAUCAUCGAGUGA [Fam2.1 aminoacylation ribozyme variant],74.1,10.7,10.5,5.02,11.9,4.69
AUUACCCUCGCCAUCGAGUGA [Fam2.1 aminoacylation ribozyme variant],41.1,7.31,6.67,3.97,8.23,3.71
AUUACCCUCGUCAUCGAGUGU [Fam2.1 aminoacylation ribozyme variant],1.56,2,1.88,1.4,1.49,1.34
AUUACCCUGACCAUCGAGUGA [Fam2.1 aminoacylation ribozyme variant],8.94,4.95,4.2,2.95,5.06,3.01
AUUACCCUGAGCAUCGAGUGA [Fam2.1 aminoacylation ribozyme variant],8.97,3.99,4.43,2.45,4.96,2.06
AUUACCCUGAUAAUCGAGUGA [Fam2.1 aminoacylation ribozyme variant],39.8,10.3,9.64,4.59,11.1,4.12
AUUACCCUGAUCAUCGAGAGA [Fam2.1 aminoacylation ribozyme variant],0.905,0.765,0.577,0.913,0.629,1.02
